Assay [1] has as its target mutated CTNNB1^S37F peptide presented by HLA-A2 on target cells (T2 cells pulsed with the peptide; HUTU80 tumor cells with endogenous CTNNB1^S37F) (human). In words: cell-based or functional assay.
Assay [2] addresses T1, CTNNB1 wild type (S37) peptide on HLA-A*02:01 (human).
T1 peptide: YLDSGIHSGA
In words: activation reporter or marker.

Assay [3] addresses T2, CTNNB1 S37F peptide on HLA-A*02:01 (human).
T2 peptide: YLDSGIHFGA
In words: CD69 by flow cytometry on GFP+ JRT (J.RT3-T3.5) cells transduced with pCDH-CTNNB1; T2 cells pulsed with a 10x dilution series of peptide from 1 µg/ml, 16 h; dose-dependent; full-length, on cells. For orientation: A flow cytometer gives signals particle by particle.

Assay [4] concerns the target T2, CTNNB1 S37F peptide on HLA-A*02:01. The experiment in a line: CD137 by flow cytometry on GFP+ CD8+ PBMC-derived T cells transduced with pCDH-CTNNB1; T2 cells pulsed with a 10x dilution series of peptide from 1 µg/ml, 24 h; dose-dependent; full-length, on cells.

B1: inventive TCR specific for the mutated CTNNB1^S37F peptide in the context of HLA-A2, with murine constant regions, expressed from lentiviral vector pCDH-CTNNB1 … (TCR)
TCR alpha: AQKVTQAQTEISVVEKEDVTLDCVYETRDTTYYLFWYKQPPSGELVFLIRRNSFDEQNEISGRYSWNFQKSTSSFNFTITASQVVDSAVYFCALSERPGYSTLTFGKGTMLLVSPDIQNPEPAVYQLKDPRSQDSTLCLFTDFDSQINVPKTMESGTFITDKTVLDMKAMDSKSNGAIAWSNQTSFTCQDIFKETNATYPSSDVPCDATLTEKSFETDMNLNFQNLSVMGLRILLLKVAGFNLLMTLRLWSS
TCR beta: DAGVIQSPRHEVTEMGQEVTLRCKPISGHDYLFWYRQTMMRGLELLIYFNNNVPIDDSGMPEDRFSAKMPNASFSTLKIQPSEPRDSAVYFCASGTPSTYEQYFGPGTRLTVTEDLRNVTPPKVSLFEPSKAEIANKQKATLVCLARGFFPDHVELSWWVNGKEVHSGVSTDPQAYKESNYSYCLSSRLRVSATFWHNPRNHFRCQVQFHGLSEEDKWPEGSPKPVTQNISAEAWGRADCGITSASYQQGVLSATILYEILLGKATLYAVLVSTLVVMAMVKRKNS
Regarding B1, in assay [1], the percentage of CD8+CD137+ cells in gated GFP+ transduced PBMC T cells after 24 h co-culture with peptide-pulsed T2 cells; lowest peptide concentration giving a twofold increase over no peptide was determined as 1 ng/mL and the percentage of CD69+ cells in gated GFP+ JRT cells after 16 h co-culture with peptide-pulsed T2 cells; lowest peptide concentration giving a twofold increase over no peptide stood at 0.5 ng/mL.

B2: CTNNB1^S37F peptide specific TCR (the inventive TCR) (TCR, V domains shown)
Valpha: AQKVTQAQTEISVVEKEDVTLDCVYETRDTTYYLFWYKQPPSGELVFLIRRNSFDEQNEISGRYSWNFQKSTSSFNFTITASQVVDSAVYFCALSERPGYSTLTFGKGTMLLVSP
Vbeta: DAGVIQSPRHEVTEMGQEVTLRCKPISGHDYLFWYRQTMMRGLELLIYFNNNVPIDDSGMPEDRFSAKMPNASFSTLKIQPSEPRDSAVYFCASGTPSTYEQYFGPGTRLTVT
In the case of B2, the binding result in assay [2] is “no recognition”. Moreover, in assay [3], the “lowest activating peptide concentration (twofold CD69+ over no peptide)” value was ~0.5 ng/mL. In addition, the “lowest activating peptide concentration (twofold CD8+CD137+ over no peptide)” value in assay [4] stood at 1 ng/mL.

Values taken from patent US20240390423A1 (published 2024).
